One may read the Kd as the concentration at which binding is half-saturated. Read a high Kd as weaker binding.

Data on five molecules can be found in PMC10694664 (The Journal of Biological Chemistry, 2023).

B4: Fis1ΔN (human Fis1 residues 9-125, lacking the N-terminal arm) (domain or fragment)
chain: VSVEDLLKFEKKFQSEKAAGSVSKSTQFEYAWCLVRSKYNDDIRKGIVLLEELLPKGSKEEQRDYVFYLAVGNYRLKEYEKALKYVRGLLQTEPQNNQAKELERLIDKAMKKDGLVG

Experiment [1] has as its target Cy5-labelled Drp1 (isoform 1) (human, UniProt O00429 1-736). Nature of the experiment: MST.
Experiment [2] deals with B4. Nature of the experiment: NMR titration.
In experiment [3] the target is T1, Dynamin-related protein 1 (Drp1) isoform 1, unlabelled (human, UniProt O00429 1-736). Nature of the experiment: MST.
Experiment [4] addresses T1, Dynamin-related protein 1 (Drp1) …. Nature of the experiment: NMR titration.

Cy5-labelled Drp1 (isoform 1), sequence (O00429 whole entry, canonical isoform): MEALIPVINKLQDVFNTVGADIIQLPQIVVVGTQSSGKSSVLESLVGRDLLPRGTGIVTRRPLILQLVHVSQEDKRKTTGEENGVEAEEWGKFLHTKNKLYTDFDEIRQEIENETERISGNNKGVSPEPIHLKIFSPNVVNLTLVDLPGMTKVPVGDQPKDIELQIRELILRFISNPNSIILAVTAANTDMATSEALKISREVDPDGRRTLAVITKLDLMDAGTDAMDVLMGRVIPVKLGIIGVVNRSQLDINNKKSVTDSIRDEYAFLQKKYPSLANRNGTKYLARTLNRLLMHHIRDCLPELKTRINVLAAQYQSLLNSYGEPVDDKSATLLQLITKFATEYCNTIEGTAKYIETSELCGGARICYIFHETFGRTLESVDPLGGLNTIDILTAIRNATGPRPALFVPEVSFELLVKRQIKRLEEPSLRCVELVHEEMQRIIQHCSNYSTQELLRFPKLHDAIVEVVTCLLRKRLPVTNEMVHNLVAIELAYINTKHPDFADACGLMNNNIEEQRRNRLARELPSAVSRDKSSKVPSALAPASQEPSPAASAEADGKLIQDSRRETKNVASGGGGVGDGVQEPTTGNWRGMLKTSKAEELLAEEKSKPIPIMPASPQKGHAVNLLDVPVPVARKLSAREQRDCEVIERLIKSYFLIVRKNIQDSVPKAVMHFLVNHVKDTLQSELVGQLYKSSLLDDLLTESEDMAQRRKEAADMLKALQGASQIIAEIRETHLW
T1 sequence (O00429 whole entry, canonical isoform): as above

B1: Fis1 (human Fis1 residues 1-125, with the N-terminal arm) (domain or fragment)
chain: MEAVLNELVSVEDLLKFEKKFQSEKAAGSVSKSTQFEYAWCLVRSKYNDDIRKGIVLLEELLPKGSKEEQRDYVFYLAVGNYRLKEYEKALKYVRGLLQTEPQNNQAKELERLIDKAMKKDGLVG
Molecule B1 yielded a Kd in experiment [1] of 13 ± 3 µM.

B2: Fis1 E7A (human Fis1 residues 1-125 with E7A) (domain or fragment)
chain: MEAVLNALVSVEDLLKFEKKFQSEKAAGSVSKSTQFEYAWCLVRSKYNDDIRKGIVLLEELLPKGSKEEQRDYVFYLAVGNYRLKEYEKALKYVRGLLQTEPQNNQAKELERLIDKAMKKDGLVG
In experiment [1], B2 returned a Kd of 7 ± 1 µM.

In experiment [2], Ac-MEAVLNEL-NH2 [Fis1 N-terminal arm peptide] had a Kd not below 5000 µM.

B3: Cy5-labelled Fis1ΔN (residues 9-125) (domain or fragment)
chain: VSVEDLLKFEKKFQSEKAAGSVSKSTQFEYAWCLVRSKYNDDIRKGIVLLEELLPKGSKEEQRDYVFYLAVGNYRLKEYEKALKYVRGLLQTEPQNNQAKELERLIDKAMKKDGLVG
In the case of B3, the Kd in experiment [3] came to 15 µM.

B4 had a Kd in experiment [4] of 26 to 68 µM.
